# Experimental data from patent US10064926B2, “Peptides and combination of peptides for use in immunotherapy against hepatocellular carcinoma (HCC) and other cancers” (Immatics biotechnologies GmbH, priority 2014, dated 2018).
# Biological target: HLA-A*02 (Homo sapiens, UniProt P04439, D140Y/D185E/D98H/E176V/E277Q/G131W/G231S/I119V/I121R/I166T/I218V/N151K/N90K/P208A/P217A/Q86G/Q94H/R138H/R169H)
# Test: UV-ligand exchange / peptide binding to MHC class I (beta2m ELISA)
# Conditions: Table 10B; peptide exchange yield; HLA-A*02 peptides
# Description: Candidate peptides for T cell based therapies according to the present invention were further tested for their MHC binding capacity (affinity). The individual peptide-MHC complexes were produced by UV-ligand exchange, where a UV-sensitive peptide is cleaved upon UV-irradiation, and exchanged with the peptide of interest as analyzed. Only peptide candidates that can effectively bind and stabilize the peptide-receptive MHC molecules prevent dissociation of the MHC complexes. To determine the yield of the exchange reaction, an ELISA was performed based on the detection of the light chain (β2m) of stabilized MHC complexes. The assay was performed as generally described in Rodenko et al. (Rodenko B, Toebes M, Hadrup S R, van Esch W J, Molenaar A M, Schumacher T N, Ovaa H. Generation of peptide-MHC class I complexes through UV-mediated ligand exchange. Nat Protoc. 2006; 1(3):1120-32).
# 96 well MAXISorp plates (NUNC) were coated over night with 2 ug/ml streptavidin in PBS at room temperature, washed 4× and blocked for 1 h at 37° C. in 2% BSA containing blocking buffer. Refolded HLA-A*0201/MLA-001 monomers served as standards, covering the range of 15-500 ng/ml. Peptide-MHC monomers of the UV-exchange reaction were diluted 100 fold in blocking buffer. Samples were incubated for 1 h at 37° C., washed four times, incubated with 2 ug/ml HRP conjugated anti-β2m for 1 h at 37° C., washed again and detected with TMB solution that is stopped with […]. Absorption was measured at 450 nm. Candidate peptides that show a high exchange yield (preferably higher than 50%, most preferred higher than 75%) are generally preferred for a generation and production of antibodies or fragments thereof, and/or T cell receptors or fragments thereof, as they show sufficient avidity to the MHC molecules and prevent dissociation of the MHC complexes.
row,Substance,Peptide exchange (MHC class I binding score)
1,125 (ALYGRLEVV; listed as Homo sapiens) [compound 125],“++++” (≥75% = ++++)
2,126 (TLLDSPIKV; listed as Homo sapiens) [compound 126],“+++” (≥50 = +++)
3,127 (VLIGSNHSL; listed as Homo sapiens) [compound 127],“++++” (≥75% = ++++)
4,130 (ALDAGAVYTL; listed as Homo sapiens) [compound 130],“++++” (≥75% = ++++)
5,131 (ALDSGAFQSV; listed as Homo sapiens) [compound 131],“+++” (≥50 = +++)
6,135 (ALLGKIEKV; listed as Homo sapiens) [compound 135],“+++” (≥50 = +++)
7,137 (ALPTVLVGV; listed as Homo sapiens) [compound 137],“++++” (≥75% = ++++)
8,140 (ALTSISAGV; listed as Homo sapiens) [compound 140],“++++” (≥75% = ++++)
9,141 (AMGEKSFSV; listed as Homo sapiens) [compound 141],“++++” (≥75% = ++++)
10,142 (AVIGGLIYV; listed as Homo sapiens) [compound 142],“++++” (≥75% = ++++)
11,145 (FLIAEYFEHV; listed as Homo sapiens) [compound 145],“++” (≥20% = ++)
12,146 (FLWTEQAHTV; listed as Homo sapiens) [compound 146],“++” (≥20% = ++)
13,148 (GLFAPLVFL; listed as Homo sapiens) [compound 148],“++++” (≥75% = ++++)
14,156 (LLFPHPVNQV; listed as Homo sapiens) [compound 156],“++++” (≥75% = ++++)
15,161 (RLLDEQFAV; listed as Homo sapiens) [compound 161],“+++” (≥50 = +++)
16,167 (SLAESSFDV; listed as Homo sapiens) [compound 167],“+++” (≥50 = +++)
17,168 (SLAVLVPIV; listed as Homo sapiens) [compound 168],“+++” (≥50 = +++)
18,174 (TLAELGAVQV; listed as Homo sapiens) [compound 174],“+++” (≥50 = +++)
19,175 (TLFEHLPHI; listed as Homo sapiens) [compound 175],“+++” (≥50 = +++)
20,176 (TLGQIWDV; listed as Homo sapiens) [compound 176],“++++” (≥75% = ++++)
21,177 (VLDEPYEKV; listed as Homo sapiens) [compound 177],“+++” (≥50 = +++)
22,178 (YIFTTPKSV; listed as Homo sapiens) [compound 178],“+++” (≥50 = +++)
23,179 (YIHNILYEV; listed as Homo sapiens) [compound 179],“++++” (≥75% = ++++)
24,183 (YLYNNEEQVGL; listed as Homo sapiens) [compound 183],“++” (≥20% = ++)
25,185 (ALFPALRPGGFQA; listed as Homo sapiens) [compound 185],“+++” (≥50 = +++)

# Continued, values first:
row,Peptide exchange (MHC class I binding score),Substance
1,“+++” (≥50 = +++),123 (YLWDLDHGFAGV; listed as Homo sapiens) [compound 123]
2,“++++” (≥75% = ++++),124 (LLIDVVTYL; listed as Homo sapiens) [compound 124]
3,“++++” (≥75% = ++++),128 (GLAFSLNGV; listed as Homo sapiens) [compound 128]
4,“+++” (≥50 = +++),129 (SQADVIPAV; listed as Homo sapiens) [compound 129]
5,“+++” (≥50 = +++),132 (ALHEEVVGV; listed as Homo sapiens) [compound 132]
6,“+++” (≥50 = +++),133 (ALLEMDARL; listed as Homo sapiens) [compound 133]
7,“++++” (≥75% = ++++),134 (ALLETNPYLL; listed as Homo sapiens) [compound 134]
8,“+++” (≥50 = +++),136 (ALLNQHYQV; listed as Homo sapiens) [compound 136]
9,“++++” (≥75% = ++++),138 (ALSQVTLLL; listed as Homo sapiens) [compound 138]
10,“+++” (≥50 = +++),139 (ALSSKPAEV; listed as Homo sapiens) [compound 139]
11,“+++” (≥50 = +++),147 (GLAPGGLAVV; listed as Homo sapiens) [compound 147]
12,“++++” (≥75% = ++++),149 (GLLSGLDIMEV; listed as Homo sapiens) [compound 149]
13,“++++” (≥75% = ++++),150 (GLSNLGIKSI; listed as Homo sapiens) [compound 150]
14,“+++” (≥50 = +++),151 (HLAKVTAEV; listed as Homo sapiens) [compound 151]
15,“+++” (≥50 = +++),152 (KLDNNLDSV; listed as Homo sapiens) [compound 152]
16,“+++” (≥50 = +++),154 (KLTDHLKYV; listed as Homo sapiens) [compound 154]
17,“+++” (≥50 = +++),157 (QLLPNLRAV; listed as Homo sapiens) [compound 157]

row,Peptide exchange (MHC class I binding score),Substance
1,“++” (≥20% = ++),158 (RIISGLVKV; listed as Homo sapiens) [compound 158]
2,“+++” (≥50 = +++),159 (RLFPDGIVTV; listed as Homo sapiens) [compound 159]
3,“++” (≥20% = ++),160 (RLLAKIICL; listed as Homo sapiens) [compound 160]
4,“++” (≥20% = ++),162 (RLMSALTQV; listed as Homo sapiens) [compound 162]
5,“+++” (≥50 = +++),163 (RLTESVLYL; listed as Homo sapiens) [compound 163]
6,“+++” (≥50 = +++),164 (RMLIKLLEV; listed as Homo sapiens) [compound 164]
7,“++++” (≥75% = ++++),165 (RVIEHVEQV; listed as Homo sapiens) [compound 165]
8,“+++” (≥50 = +++),166 (SILDIVTKV; listed as Homo sapiens) [compound 166]
9,“+++” (≥50 = +++),169 (SLFEWFHPL; listed as Homo sapiens) [compound 169]
10,“+++” (≥50 = +++),170 (SLHNGVIQL; listed as Homo sapiens) [compound 170]
11,“+++” (≥50 = +++),171 (SLIPAVLTV; listed as Homo sapiens) [compound 171]
12,“+++” (≥50 = +++),172 (SLLNFLQHL; listed as Homo sapiens) [compound 172]
13,“+++” (≥50 = +++),173 (SLTSEIHFL; listed as Homo sapiens) [compound 173]
14,“+++” (≥50 = +++),180 (YLGPHIASVTL; listed as Homo sapiens) [compound 180]
15,“+++” (≥50 = +++),181 (YLLEKFVAV; listed as Homo sapiens) [compound 181]
16,“+++” (≥50 = +++),182 (YLLHFPMAL; listed as Homo sapiens) [compound 182]
17,“+++” (≥50 = +++),184 (VVLDGGQIVTV; listed as Homo sapiens) [compound 184]
